Source: PMC4192486, “The Importance of a Gatekeeper Residue on the Aggregation of Transthyretin” (The Journal of Biological Chemistry, 2014)

Target: the molecule itself
Assay: SEC; Superdex 75 on HPLC, absorbance at 280 nm; 100 μM peptide in buffer pH 5.0 (100 mM MES, 100 mM KCl) at 25 °C, aliquots at 0, 5, 10, 15 and 30 min of the aggregation reaction; soluble WT peptide at the same concentration as control

B1: TTR 26–57 peptide bearing the K35L substitution (peptide)
peptide: not shown
notes: transthyretin (TTR), human, residues 26-57 with K35L; also called K35L peptide; 26–57 K35L; source: synthetic peptide; bought: Genemed Synthesis
With B1 the “stoichiometry N” value was 10 to 15 units.
